Results from patent publication US20250312499A1, “KISSPEPTIN RECEPTOR (KISS1R) TARGETED THERAPEUTICS AND USES THEREOF” (priority 2024, published 2025).
Numbered stars: 1 amine (or outer) side, 2 acyl side, 3 side chain; on linkers, the order of the positions; unused ones are H or OH. Square brackets hold non-standard residues; d marks the D form. * marks the point of attachment. X2 = 4‑amino‑1‑((3-fluoro-4-methylbenzyl)glycyl)piperidine‑4‑carboxylic acid, Cc1ccc(CN(CC(=O)N2CCC(N[*:1])(C(=O)[*:2])CC2)[*:3])cc1F; DOTA = O=C(O)CN1CCN(CC(=O)O)CCN(CC(=O)*)CCN(CC(=O)O)CC1; Butanoyl(4-(4-I-phenyl)) = O=C(CCCc1ccc(I)cc1)*; Api(1-amidino) = N=C(N)N1CCC(N)(C(=O)O)CC1; Phe(3-F) = N[C@@H](Cc1cccc(F)c1)C(=O)O; Phe(4-I) = N[C@@H](Cc1ccc(I)cc1)C(=O)O; d2Nal = N[C@H](Cc1ccc2ccccc2c1)C(=O)O; Hyp = O=C(O)[C@@H]1C[C@@H](O)CN1; 4Pal = N[C@@H](Cc1ccncc1)C(=O)O; Cha = N[C@@H](CC1CCCCC1)C(=O)O; d(β3hD) = NC(CC(=O)O)CC(=O)O; 4Amb = NCc1ccc(C(=O)O)cc1; Pip = O=C(O)[C@@H]1CCCCN1; Octanoyl = CCCCCCCC(=O)*; Ahx = NCCCCCC(=O)O; azaGly = NNC(=O)O; βAla = NCCC(=O)O; Sar = CNCC(=O)O

B1: Compound 317 (peptide)
peptide: {DOTA-Ahx}-[dY][d2Nal]NT[Cha][azaGly]L[Api(1-amidino)]W-NH2
SMILES: CC(C)C[C@H](NC(=O)NNC(=O)[C@H](CC1CCCCC1)NC(=O)[C@@H](NC(=O)[C@H](CC(N)=O)NC(=O)[C@@H](Cc1ccc2ccccc2c1)NC(=O)[C@@H](Cc1ccc(O)cc1)NC(=O)CCCCCNC(=O)CN1CCN(CC(=O)O)CCN(CC(=O)O)CCN(CC(=O)O)CC1)[C@@H](C)O)C(=O)NC1(C(=O)N[C@@H](Cc2c[nH]c3ccccc23)C(N)=O)CCN(C(=N)N)CC1
B2: Compound 371 (peptide)
peptide: {DOTA-Ahx}-[dY][d2Nal]NTF[azaGly]L[4‑amino‑1‑((4-iodobenzyl)glycyl)piperidine‑4‑carboxylic acid][dW]-NH2
B3: Compound 339 (peptide)
peptide: {DOTA-Ahx}-[dY][d2Nal]NTF[azaGly]L[Pip][dW]-NH2
B4: Compound 374 (peptide)
peptide: {DOTA-Ahx}-[dY][d2Nal]NTF[azaGly]L[4‑amino‑1‑(octylglycyl)piperidine‑4‑carboxylic acid][dW]-NH2
B5: Compound 337 (peptide)
peptide: {DOTA-Ahx}-[dK](Butanoyl(4-(4-I-phenyl)))[Ahx][dY][d2Nal]NTF[azaGly]L[Api(1-amidino)]W-NH2
SMILES: CC(C)C[C@H](NC(=O)NNC(=O)[C@H](Cc1ccccc1)NC(=O)[C@@H](NC(=O)[C@H](CC(N)=O)NC(=O)[C@@H](Cc1ccc2ccccc2c1)NC(=O)[C@@H](Cc1ccc(O)cc1)NC(=O)CCCCCNC(=O)[C@@H](CCCCNC(=O)CCCc1ccc(I)cc1)NC(=O)CCCCCNC(=O)CN1CCN(CC(=O)O)CCN(CC(=O)O)CCN(CC(=O)O)CC1)[C@@H](C)O)C(=O)NC1(C(=O)N[C@@H](Cc2c[nH]c3ccccc23)C(N)=O)CCN(C(=N)N)CC1
B6: Compound 310 (peptide)
peptide: {DOTA-Ahx}-[dK](Butanoyl(4-(4-I-phenyl)))[dY][d2Nal]NTF[azaGly]L[Api(1-amidino)]F-NH2
SMILES: CC(C)C[C@H](NC(=O)NNC(=O)[C@H](Cc1ccccc1)NC(=O)[C@@H](NC(=O)[C@H](CC(N)=O)NC(=O)[C@@H](Cc1ccc2ccccc2c1)NC(=O)[C@@H](Cc1ccc(O)cc1)NC(=O)[C@@H](CCCCNC(=O)CCCc1ccc(I)cc1)NC(=O)CCCCCNC(=O)CN1CCN(CC(=O)O)CCN(CC(=O)O)CCN(CC(=O)O)CC1)[C@@H](C)O)C(=O)NC1(C(=O)N[C@@H](Cc2ccccc2)C(N)=O)CCN(C(=N)N)CC1
B7: Compound 311 (peptide)
peptide: {DOTA-Ahx}-[dY][Hyp]NTF[azaGly]L[Api(1-amidino)]W-NH2
SMILES: CC(C)C[C@H](NC(=O)NNC(=O)[C@H](Cc1ccccc1)NC(=O)[C@@H](NC(=O)[C@H](CC(N)=O)NC(=O)[C@@H]1C[C@@H](O)CN1C(=O)[C@@H](Cc1ccc(O)cc1)NC(=O)CCCCCNC(=O)CN1CCN(CC(=O)O)CCN(CC(=O)O)CCN(CC(=O)O)CC1)[C@@H](C)O)C(=O)NC1(C(=O)N[C@@H](Cc2c[nH]c3ccccc23)C(N)=O)CCN(C(=N)N)CC1
B8: Compound 260 (peptide)
peptide: {DOTA-4Amb}-F[azaGly][dL][X2]W-NH2
SMILES: Cc1ccc(CNCC(=O)N2CCC(NC(=O)[C@@H](CC(C)C)NC(=O)NNC(=O)[C@H](Cc3ccccc3)NC(=O)c3ccc(CNC(=O)CN4CCN(CC(=O)O)CCN(CC(=O)O)CCN(CC(=O)O)CC4)cc3)(C(=O)N[C@@H](Cc3c[nH]c4ccccc34)C(N)=O)CC2)cc1F
B9: Compound 18 (peptide)
peptide: {DOTA}-[dN][dN]F[azaGly]L[X2]W-NH2
SMILES: Cc1ccc(CNCC(=O)N2CCC(NC(=O)[C@H](CC(C)C)NC(=O)NNC(=O)[C@H](Cc3ccccc3)NC(=O)[C@@H](CC(N)=O)NC(=O)[C@@H](CC(N)=O)NC(=O)CN3CCN(CC(=O)O)CCN(CC(=O)O)CCN(CC(=O)O)CC3)(C(=O)N[C@@H](Cc3c[nH]c4ccccc34)C(N)=O)CC2)cc1F
B10: Compound 14 (peptide)
peptide: {DOTA}-[βAla][dN][dN][dN][dN][dN]F[azaGly]L[X2]W-NH2
SMILES: Cc1ccc(CNCC(=O)N2CCC(NC(=O)[C@H](CC(C)C)NC(=O)NNC(=O)[C@H](Cc3ccccc3)NC(=O)[C@@H](CC(N)=O)NC(=O)[C@@H](CC(N)=O)NC(=O)[C@@H](CC(N)=O)NC(=O)[C@@H](CC(N)=O)NC(=O)[C@@H](CC(N)=O)NC(=O)CCNC(=O)CN3CCN(CC(=O)O)CCN(CC(=O)O)CCN(CC(=O)O)CC3)(C(=O)N[C@@H](Cc3c[nH]c4ccccc34)C(N)=O)CC2)cc1F
B11: Compound 19 (peptide)
peptide: {DOTA}-[dK][dN]F[azaGly]L[X2]W-NH2
SMILES: Cc1ccc(CNCC(=O)N2CCC(NC(=O)[C@H](CC(C)C)NC(=O)NNC(=O)[C@H](Cc3ccccc3)NC(=O)[C@@H](CC(N)=O)NC(=O)[C@@H](CCCCN)NC(=O)CN3CCN(CC(=O)O)CCN(CC(=O)O)CCN(CC(=O)O)CC3)(C(=O)N[C@@H](Cc3c[nH]c4ccccc34)C(N)=O)CC2)cc1F
B12: Compound 5 (peptide)
peptide: {DOTA-Ahx}-F[azaGly]L[Api(1-amidino)]W-NH2
SMILES: CC(C)C[C@H](NC(=O)NNC(=O)[C@H](Cc1ccccc1)NC(=O)CCCCCNC(=O)CN1CCN(CC(=O)O)CCN(CC(=O)O)CCN(CC(=O)O)CC1)C(=O)NC1(C(=O)N[C@@H](Cc2c[nH]c3ccccc23)C(N)=O)CCN(C(=N)N)CC1
B13: Compound 13 (peptide)
peptide: {DOTA-Ahx}-[dA][dA][dA][dA][dA]F[azaGly]L[X2]W-NH2
SMILES: Cc1ccc(CNCC(=O)N2CCC(NC(=O)[C@H](CC(C)C)NC(=O)NNC(=O)[C@H](Cc3ccccc3)NC(=O)[C@@H](C)NC(=O)[C@@H](C)NC(=O)[C@@H](C)NC(=O)[C@@H](C)NC(=O)[C@@H](C)NC(=O)CCCCCNC(=O)CN3CCN(CC(=O)O)CCN(CC(=O)O)CCN(CC(=O)O)CC3)(C(=O)N[C@@H](Cc3c[nH]c4ccccc34)C(N)=O)CC2)cc1F
B14: Compound 226 (peptide)
peptide: Octanoyl-K(DOTA)NTF[azaGly]L[Api(1-amidino)][4Pal]-NH2
SMILES: CCCCCCCC(=O)N[C@@H](CCCCNC(=O)CN1CCN(CC(=O)O)CCN(CC(=O)O)CCN(CC(=O)O)CC1)C(=O)N[C@@H](CC(N)=O)C(=O)N[C@H](C(=O)N[C@@H](Cc1ccccc1)C(=O)NNC(=O)N[C@@H](CC(C)C)C(=O)NC1(C(=O)N[C@@H](Cc2ccncc2)C(N)=O)CCN(C(=N)N)CC1)[C@@H](C)O
B15: Compound 12 (peptide)
peptide: {DOTA-Ahx}-F[Sar]L[X2]W-NH2
SMILES: Cc1ccc(CNCC(=O)N2CCC(NC(=O)[C@H](CC(C)C)NC(=O)CN(C)C(=O)[C@H](Cc3ccccc3)NC(=O)CCCCCNC(=O)CN3CCN(CC(=O)O)CCN(CC(=O)O)CCN(CC(=O)O)CC3)(C(=O)N[C@@H](Cc3c[nH]c4ccccc34)C(N)=O)CC2)cc1F
B16: Compound 231 (peptide)
peptide: {DOTA-trans‑4‑(aminomethyl)cyclohexane‑1‑carboxylic acid}-[D‑3‑aminopentanedioic acid]NT[Phe(3-F)][azaGly]L[X2][4Pal]-NH2
B17: Compound 7 (peptide)
peptide: {DOTA-Ahx}-F[azaGly]L[4‑amino‑1‑(4-(p-tolyl)butanoyl)piperidine‑4‑carboxylic acid]W-NH2
B18: Compound 171 (peptide)
peptide: {DOTA}-ENT[Phe(3-F)][azaGly]L[X2][4Pal]-NH2
SMILES: Cc1ccc(CNCC(=O)N2CCC(NC(=O)[C@H](CC(C)C)NC(=O)NNC(=O)[C@H](Cc3cccc(F)c3)NC(=O)[C@@H](NC(=O)[C@H](CC(N)=O)NC(=O)[C@H](CCC(=O)O)NC(=O)CN3CCN(CC(=O)O)CCN(CC(=O)O)CCN(CC(=O)O)CC3)[C@@H](C)O)(C(=O)N[C@@H](Cc3ccncc3)C(N)=O)CC2)cc1F
B19: Compound 230 (peptide)
peptide: {DOTA}-[d(β3hD)]NT[Phe(3-F)][azaGly]L[X2][4Pal]-NH2
B20: Compound 121 (peptide)
peptide: {DOTA}-[dY][Phe(4-I)]NT[Phe(4-I)][azaGly]L[Api(1-amidino)][4Pal]-NH2
SMILES: CC(C)C[C@H](NC(=O)NNC(=O)[C@H](Cc1ccc(I)cc1)NC(=O)[C@@H](NC(=O)[C@H](CC(N)=O)NC(=O)[C@H](Cc1ccc(I)cc1)NC(=O)[C@@H](Cc1ccc(O)cc1)NC(=O)CN1CCN(CC(=O)O)CCN(CC(=O)O)CCN(CC(=O)O)CC1)[C@@H](C)O)C(=O)NC1(C(=O)N[C@@H](Cc2ccncc2)C(N)=O)CCN(C(=N)N)CC1
B21: Compound 21 (peptide)
peptide: {DOTA}-[dN]F[azaGly]L[X2]W-NH2
SMILES: Cc1ccc(CNCC(=O)N2CCC(NC(=O)[C@H](CC(C)C)NC(=O)NNC(=O)[C@H](Cc3ccccc3)NC(=O)[C@@H](CC(N)=O)NC(=O)CN3CCN(CC(=O)O)CCN(CC(=O)O)CCN(CC(=O)O)CC3)(C(=O)N[C@@H](Cc3c[nH]c4ccccc34)C(N)=O)CC2)cc1F

target: human kisspeptin receptor (KISS1R) (human) (UniProt Q969F8); assay: radioligand competition, hKISS1R membranes; legend: A is <10 nM
Sequence (Q969F8 whole entry): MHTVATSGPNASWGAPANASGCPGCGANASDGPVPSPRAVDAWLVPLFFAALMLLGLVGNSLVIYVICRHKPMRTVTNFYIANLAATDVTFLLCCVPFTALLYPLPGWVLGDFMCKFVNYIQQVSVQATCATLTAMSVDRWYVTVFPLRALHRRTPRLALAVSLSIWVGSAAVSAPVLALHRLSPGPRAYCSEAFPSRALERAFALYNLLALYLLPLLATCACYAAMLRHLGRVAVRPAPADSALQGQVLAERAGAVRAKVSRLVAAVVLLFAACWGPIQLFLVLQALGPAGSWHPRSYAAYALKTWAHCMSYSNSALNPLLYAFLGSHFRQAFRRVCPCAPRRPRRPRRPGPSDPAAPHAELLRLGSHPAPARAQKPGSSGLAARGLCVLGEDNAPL

Ki [nM] | Binder
< 10 | B1
< 10 | B2
< 10 | B3
< 10 | B4
< 10 | B5
< 10 | B6
< 10 | B7

target: human kisspeptin receptor (KISS1R) (human), Q969F8; assay: radioligand competition, hKISS1R membranes; legend: B is 10-100 nM
Sequence (Q969F8 whole entry): as above

Ki [nM] | Binder
10 to 100 | B8
10 to 100 | B9
10 to 100 | B10
10 to 100 | B11
10 to 100 | B12
10 to 100 | B13
10 to 100 | B14
10 to 100 | B15
10 to 100 | B16
10 to 100 | B17
10 to 100 | B18
10 to 100 | B19
10 to 100 | B20
10 to 100 | B21
